Results from the supplement of paper PMC10567573.

B1: SCNN1D (parent)
chain: FLGHHSFSVRPGTEATISIREDEV
B2: HDAC6 (parent)
chain: QEGLLDRCVSFQARFAEKEELMLV

Variants of: B1
Assay: protein stability index of a GFP-peptide fusion (GPS, HEK-293T) (PSI 1-6); higher = more stable
Settings: c terminus: a fixed tail appended
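Also: lentivirally expressed fusions sorted by FACS into six bins by GFP to DsRed ratio, PSI derived from sequencing read proportions per bin multiplied by bin number.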

Variant	protein stability index
E23A	1.96
E23C	1.88
E23G	2.29
E23N	2.1
E23F	2.45
E23P	1.99
E23K	2.38
E23L	1.66
E23R	1.73
E23S	1.06
E23D	2.12
E23Y	2.54
E23T	1.41
E23W	3.12
E23I	2.23
E23H	2.32
E23Q	1.65
E23M	1.91
E23V	2.05
R20W	1.42
R20E	2.1
R20M	1.5
R20Y	1.77
R20S	2.27

Variant	protein stability index
R20A	2.3
R20C	2.24
R20D	1.9
R20Q	1.79
R20L	1.52
R20I	2.5
R20F	3.02
R20V	1.65
R20P	1.79
R20K	1.73
R20H	1.67
R20T	1.79
R20N	1.49
R20G	2.3
D22S	1.35
D22A	1.89
D22M	2.45
D22W	1.77
D22Q	1.39
D22Y	3.14
D22R	2.4
D22T	2.07
D22K	2.04
D22L	1.51

Variant	protein stability index
D22P	1.74
D22I	2.39
D22H	1.79
D22C	2.21
D22N	2.23
D22E	2.11
D22V	1.57
D22F	1.73
V24N	1.99
V24F	1.76
V24K	1.93
V24C	1.81
V24A	1.8
V24P	1.76
V24I	1.8
V24S	1.62
V24L	1.66
V24E	2.27
V24R	1.49
V24W	1.44
V24Q	2.25
V24G	1.9
V24H	1.76
V24M	2.75

Variant	protein stability index
V24T	1.66
V24Y	1.48
V24D	2.15
E21Y	2.52
E21S	1.8
E21P	2.33
E21I	3.27
E21W	2.45
E21T	2.55
E21D	1.56
E21H	1.48
E21M	2.08
E21V	3.42
E21G	1.33
E21K	1.44
E21F	2.3
E21L	2.48
E21R	2.6
E21C	1.68
E21A	2.25
E21Q	1.74
E21N	2.11
S18E	2.49
S18Q	1.79

Variant	protein stability index
S18R	2.22
S18H	1.33
S18V	1.25
S18N	1.57
S18A	1.6
S18P	1.8
S18G	1.47
S18D	1.43
S18F	1.8
S18Y	1.71
S18L	2.2
S18T	1.66
S18I	1.96
S18K	1.67
S18M	1.55
I19S	2.13
I19R	2.06
I19W	1.32
I19V	2.74
I19G	2.6
I19A	2.68
I19M	1.55
I19L	2.16
I19P	1.89

Variant	protein stability index
I19D	1.92
I19E	1.71
I19F	2.21
I19K	2.14
I19C	1.58
I19T	1.74
I19Y	1.52
I19N	2.42
I19H	1.9
I19Q	1.99
I17V	1.68
I17R	2.07
I17Q	2.54
I17T	2.24
I17W	1.58
I17S	1.66
I17N	1.68
I17Y	2.79
I17P	2.19

Variants of: B2
Assay: as above
Settings: c terminus: a fixed tail appended

Variant	protein stability index
G3M	2.04
G3W	1.79
G3D	2.12
G3A	1.89
G3Y	1.31
G3L	1.64
G3I	1.95
G3C	2.3
G3H	2.12
G3F	1.06
G3K	2.16
G3R	2.01
G3P	1.78
G3E	2.54
G3V	1.4
G3S	2.19
G3N	2.93
G3T	1.97
G3Q	2.01
E2Y	1.8
E2C	2
E2S	2.5
E2R	1.95
E2F	1.77
E2N	1.28

Variant	protein stability index
E2Q	1.21
E2G	2.52
E2M	1.62
E2L	1.69
E2H	1.96
E2K	1.94
E2T	2.14
E2I	2.12
E2P	2.56
E2V	2.44
E2D	1.83
E2A	1.12
E2W	1.57
L4K	1.94
L4R	1.79
L4P	2.04
L4G	1.43
L4V	1.9
L4T	1.91
L4Q	1.99
L4S	1.75
L4N	2.06
L4Y	2.01
L4D	1.75
L4C	2.73

Variant	protein stability index
L4A	1.62
L4M	2.19
L4H	1.44
L4W	1.5
L4I	1.79
L4E	1.85
L4F	2.47
S10L	1.89
S10C	1.77
S10G	1.82
S10V	1.45
S10R	2.37
S10W	1.86
S10E	2.17
S10M	1.64
S10Q	2.1
S10H	1.75
S10I	1.77
S10P	1.99
S10Y	2.56
S10F	1.83
S10D	2.19
S10A	2.5
S10T	2.31
S10N	1.66

Variant	protein stability index
S10K	2.13
F11E	3.09
F11C	3.17
F11G	2.43
F11A	2.35
F11D	3.01
Q1I	2.48
Q1K	1.39
Q1V	1.54
Q1S	2.34
Q1N	1.91
Q1P	2.13
Q1C	1.39
Q1T	1.77
Q1H	1.54
Q1A	1.94
Q1L	2.33
Q1W	1.47
Q1D	1.85
Q1Y	1.25
Q1G	1.51
Q1F	1.18
Q1E	2.51
Q1R	1.63
Q1M	1.94

Variant	protein stability index
C8Y	4.19
C8R	1.98
C8I	1.67
C8M	1.98
C8P	1.87
C8Q	2.12
C8K	2.45
C8L	1.57
C8E	2.04
C8T	2.27
C8N	1.9
C8H	1.93
C8S	2.44
C8V	2.17
C8G	2.61
C8A	1.97
C8D	1.77
C8W	1.62
C8F	1.61
D6Y	1.95
D6P	1.38
D6R	2
D6F	1.54
D6E	1.84
D6I	1.69

Variant	protein stability index
D6G	1.74
D6H	2.09
D6M	1.87
D6Q	1.87
D6W	2.38
D6S	2.13
D6V	2.06
D6K	2.69
D6A	2.45
D6L	1.9
D6C	1.78
D6N	2.37
D6T	1.64
R7V	1.71
R7F	2.59
R7H	1.7
R7T	1.73
R7W	1.83
R7D	1.69
R7S	3.14
R7P	2.56
R7N	2.13
R7E	1.93
R7K	1.43
R7C	2.32

Variant	protein stability index
R7A	2.74
R7G	2.17
R7Q	1.94
R7M	1.92
R7L	2.69
R7I	2.91
R7Y	1.66
V9Q	2.7
V9A	1.71
V9L	1.74
V9S	2.84
V9E	2.35
V9W	1.79
V9T	2.07
V9G	1.9
V9C	2.18
V9D	2.29
V9M	2.57
V9K	2.34
V9I	2.44
V9N	2.58
V9H	1.94
V9R	2
V9F	1.63
V9Y	2.29

Variant	protein stability index
V9P	2.36
L5E	3.01
L5C	1.34
L5H	1.67
L5R	1.78
L5F	1.33
L5Q	1.56
L5D	2.62
L5Y	1.79
L5W	1.58
L5N	2.36
L5S	1.9
L5A	1.87
L5T	1.87
L5V	2.06
L5M	1.73
L5I	2.07
L5P	1.83
L5K	1.72
L5G	1.71
